From paper PMC3435109 (2012)

B1: RIIβ 108-268 (protein)
chain: TRRASVCAEAYNPDEEEDDAESRIIHPKTDDQRNRLQEACKDILLFKNLDPEQMSQVLDAMFEKLVKEGEHVIDQGDDGDNFYVIDRGTFDIYVKCDGVGRCVGNYDNRGSFGELALMYNTPRAATITATSPGALWGLDRVTFRRIIVKNNAKKRKMYESF
B2: RIIβ 102-265 (protein)
chain: PVINRFTRRASVCAEAYNPDEEEDDAESRIIHPKTDDQRNRLQEACKDILLFKNLDPEQMSQVLDAMFEKLVKEGEHVIDQGDDGDNFYVIDRGTFDIYVKCDGVGRCVGNYDNRGSFGELALMYNTPRAATITATSPGALWGLDRVTFRRIIVKNNAKKRKMY

Molecular target: PKA catalytic subunit (Mus musculus, UniProt P05132)
Test: SPR

Row | Binder | Kd
1 | B1 | 11.3 nM
2 | B2 | 0.6 nM
